Reference: the supplement of paper PMC9112550, “Optimization of the antimicrobial peptide Bac7 by deep mutational scanning” (BMC Biology, 2022)

What follows are sequences tested on Escherichia coli TOP10 (assay: shrunken log2 fold change of peptide-encoding DNA abundance (4.5 h post-induction vs induction); higher = less antimicrobial activity (less host growth inhibition)). Details: time post-induction: 4.5 h; library: site-saturation at positions 5, 18, 19, 20.
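Also: peptides expressed intracellularly from a pBAD plasmid library in pooled LB shake-flask culture, induced with 0.3% L-arabinose, DNA abundance read by NGS, three biological replicates, DESeq2 with apeglm shrinkage.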

| Sequence | shrunken log2 fold change |
| --- | --- |
| RRIRFRPPRLPRPRPRPFLYPRP | -1.04 |
| RRIRTRPPRLPRPRPRPDFFPRP | 0.175 |
| RRIRERPPRLPRPRPRPMIHPRP | -0.65 |
| RRIRTRPPRLPRPRPRPTGNPRP | -0.445 |
| RRIRIRPPRLPRPRPRPYFKPRP | -0.511 |
| RRIRNRPPRLPRPRPRPETWPRP | 0.0309 |
| RRIRLRPPRLPRPRPRPQGDPRP | -0.0165 |
| RRIRNRPPRLPRPRPRPHSQPRP | -0.392 |
| RRIRCRPPRLPRPRPRPWMTPRP | -0.188 |
| RRIRRRPPRLPRPRPRPYNRPRP | -0.276 |
| RRIRFRPPRLPRPRPRPICMPRP | -0.214 |
| RRIRPRPPRLPRPRPRPWEQPRP | 0.201 |
| RRIRWRPPRLPRPRPRPSSPPRP | -0.0889 |
| RRIRMRPPRLPRPRPRPFDWPRP | 0.597 |
| RRIRKRPPRLPRPRPRPICAPRP | 0.363 |
| RRIRVRPPRLPRPRPRPKDYPRP | -0.366 |
| RRIRVRPPRLPRPRPRPNKWPRP | -0.138 |
| RRIRIRPPRLPRPRPRPWLYPRP | -0.0424 |
| RRIRERPPRLPRPRPRPMKKPRP | 0.00499 |
| RRIRCRPPRLPRPRPRPYYEPRP | -1.27 |
| RRIRRRPPRLPRPRPRPRQYPRP | -0.191 |
| RRIRERPPRLPRPRPRPLNEPRP | -0.13 |
| RRIRHRPPRLPRPRPRPPNWPRP | 0.494 |
| RRIRFRPPRLPRPRPRPLGQPRP | -0.187 |
| RRIRWRPPRLPRPRPRPMEVPRP | -0.00973 |

| Sequence | shrunken log2 fold change |
| --- | --- |
| RRIRHRPPRLPRPRPRPEFPPRP | 0.0962 |
| RRIRFRPPRLPRPRPRPILWPRP | -0.0429 |
| RRIRGRPPRLPRPRPRPYFCPRP | -0.119 |
| RRIRDRPPRLPRPRPRPYIEPRP | -0.0649 |
| RRIRHRPPRLPRPRPRPDLYPRP | -0.243 |
| RRIRKRPPRLPRPRPRPTTQPRP | 0.196 |
| RRIRVRPPRLPRPRPRPHKGPRP | -0.0569 |
| RRIRYRPPRLPRPRPRPRQLPRP | -0.0472 |
| RRIRMRPPRLPRPRPRPYRTPRP | 0.0313 |
| RRIRNRPPRLPRPRPRPINAPRP | -0.00965 |
| RRIRGRPPRLPRPRPRPVDIPRP | 0.183 |
| RRIRLRPPRLPRPRPRPGWAPRP | 0.691 |
| RRIRCRPPRLPRPRPRPPMQPRP | 0.516 |
| RRIRKRPPRLPRPRPRPDWRPRP | 0.499 |
| RRIRQRPPRLPRPRPRPMTSPRP | -0.000946 |
| RRIRIRPPRLPRPRPRPTKVPRP | -0.257 |
| RRIRIRPPRLPRPRPRPVMSPRP | -0.0169 |
| RRIRARPPRLPRPRPRPGLAPRP | 1 |
| RRIRVRPPRLPRPRPRPETRPRP | 0.577 |
| RRIRSRPPRLPRPRPRPGWPPRP | 0.692 |
| RRIRKRPPRLPRPRPRPNAEPRP | 0.531 |
| RRIRRRPPRLPRPRPRPAWIPRP | 0.358 |
| RRIRNRPPRLPRPRPRPQRCPRP | 0.0227 |
| RRIRGRPPRLPRPRPRPHWVPRP | 0.107 |
| RRIRKRPPRLPRPRPRPRDNPRP | 0.15 |

| Sequence | shrunken log2 fold change |
| --- | --- |
| RRIRERPPRLPRPRPRPRIWPRP | 0.143 |
| RRIRQRPPRLPRPRPRPWLGPRP | -0.0417 |
| RRIRSRPPRLPRPRPRPQNGPRP | -0.535 |
| RRIRLRPPRLPRPRPRPGRDPRP | 0.26 |
| RRIRSRPPRLPRPRPRPGHKPRP | -0.112 |
| RRIRTRPPRLPRPRPRPHGGPRP | 0.384 |
| RRIRIRPPRLPRPRPRPDFHPRP | -0.649 |
| RRIRGRPPRLPRPRPRPAVWPRP | 0.71 |
| RRIRVRPPRLPRPRPRPIRDPRP | 0.0875 |
| RRIRCRPPRLPRPRPRPDMMPRP | 0.00614 |
| RRIRVRPPRLPRPRPRPSLKPRP | 0.215 |
| RRIRHRPPRLPRPRPRPAVRPRP | -0.273 |
| RRIRLRPPRLPRPRPRPSVYPRP | -0.584 |
| RRIRRRPPRLPRPRPRPHFMPRP | -0.141 |
| RRIRQRPPRLPRPRPRPPHAPRP | 0.322 |
| RRIRCRPPRLPRPRPRPVRQPRP | 0.126 |
| RRIRQRPPRLPRPRPRPWWCPRP | -0.105 |
| RRIRNRPPRLPRPRPRPTQNPRP | 0.332 |
| RRIRIRPPRLPRPRPRPENQPRP | -0.473 |
| RRIRCRPPRLPRPRPRPQHGPRP | -0.211 |
| RRIRLRPPRLPRPRPRPFCNPRP | -0.245 |
| RRIRDRPPRLPRPRPRPYKWPRP | -0.595 |
| RRIRSRPPRLPRPRPRPDPKPRP | -0.00687 |
| RRIRNRPPRLPRPRPRPFIHPRP | -0.116 |
| RRIRVRPPRLPRPRPRPMYHPRP | -0.0185 |

| Sequence | shrunken log2 fold change |
| --- | --- |
| RRIRQRPPRLPRPRPRPWCWPRP | 0.304 |
| RRIRCRPPRLPRPRPRPDLSPRP | 0.0851 |
| RRIRCRPPRLPRPRPRPLRWPRP | 0.613 |
| RRIRHRPPRLPRPRPRPVKSPRP | -0.0219 |
| RRIRFRPPRLPRPRPRPNSNPRP | -0.996 |
| RRIRPRPPRLPRPRPRPNWMPRP | 0.0917 |
| RRIRMRPPRLPRPRPRPRWFPRP | 0.717 |
| RRIRMRPPRLPRPRPRPVSCPRP | 0.141 |
| RRIRHRPPRLPRPRPRPPVSPRP | -0.0862 |
| RRIRARPPRLPRPRPRPSAIPRP | 0.173 |
| RRIRMRPPRLPRPRPRPANPPRP | 0.267 |
| RRIRQRPPRLPRPRPRPVEVPRP | -0.0922 |
| RRIRARPPRLPRPRPRPETSPRP | 0.912 |
| RRIRCRPPRLPRPRPRPNHSPRP | -0.936 |
| RRIRQRPPRLPRPRPRPEEAPRP | 0.188 |
| RRIRLRPPRLPRPRPRPLVEPRP | 0.222 |
| RRIRARPPRLPRPRPRPLATPRP | 0.647 |
| RRIRARPPRLPRPRPRPTMDPRP | -0.037 |
| RRIRVRPPRLPRPRPRPRNMPRP | -0.318 |
| RRIRERPPRLPRPRPRPGNAPRP | -0.0685 |
| RRIRLRPPRLPRPRPRPHFLPRP | -0.499 |
| RRIRLRPPRLPRPRPRPMQDPRP | 0.0525 |
| RRIRDRPPRLPRPRPRPYGQPRP | -0.0816 |
| RRIRIRPPRLPRPRPRPWVGPRP | -0.248 |
| RRIRMRPPRLPRPRPRPVMGPRP | 0.387 |

| Sequence | shrunken log2 fold change |
| --- | --- |
| RRIRARPPRLPRPRPRPGKKPRP | -0.133 |
| RRIRFRPPRLPRPRPRPLWPPRP | 0.264 |
| RRIRQRPPRLPRPRPRPDGNPRP | -0.26 |
| RRIRMRPPRLPRPRPRPYGKPRP | -0.0311 |
| RRIRSRPPRLPRPRPRPHCAPRP | -0.0311 |
| RRIRMRPPRLPRPRPRPLHEPRP | 0.545 |
| RRIRKRPPRLPRPRPRPYAMPRP | 0.202 |
| RRIRLRPPRLPRPRPRPACVPRP | 0.131 |
| RRIRKRPPRLPRPRPRPAPHPRP | 0.79 |
| RRIRARPPRLPRPRPRPIPKPRP | 0.394 |
| RRIRVRPPRLPRPRPRPENLPRP | -0.111 |
| RRIRIRPPRLPRPRPRPMNNPRP | -0.465 |
| RRIRQRPPRLPRPRPRPLVEPRP | -0.0628 |
| RRIRTRPPRLPRPRPRPCWKPRP | -0.0202 |
| RRIRTRPPRLPRPRPRPPQGPRP | 0.235 |
| RRIRTRPPRLPRPRPRPAVVPRP | 0.0328 |
| RRIRVRPPRLPRPRPRPCSNPRP | -0.411 |
| RRIRKRPPRLPRPRPRPMQFPRP | 0.105 |
| RRIRERPPRLPRPRPRPTCHPRP | -0.186 |
| RRIRCRPPRLPRPRPRPSLTPRP | -0.538 |
| RRIRHRPPRLPRPRPRPPAVPRP | 0.373 |
| RRIRYRPPRLPRPRPRPCCHPRP | -1.36 |
| RRIRRRPPRLPRPRPRPITCPRP | -0.307 |
| RRIRSRPPRLPRPRPRPIMNPRP | -0.0954 |
| RRIRFRPPRLPRPRPRPWTFPRP | -0.797 |

| Sequence | shrunken log2 fold change |
| --- | --- |
| RRIRDRPPRLPRPRPRPWFEPRP | -0.175 |
| RRIRSRPPRLPRPRPRPETGPRP | 0.105 |
| RRIRMRPPRLPRPRPRPNFKPRP | -0.0166 |
| RRIRPRPPRLPRPRPRPVHNPRP | -0.038 |
| RRIRHRPPRLPRPRPRPRKWPRP | -0.0137 |
| RRIRQRPPRLPRPRPRPPDAPRP | 0.228 |
| RRIRRRPPRLPRPRPRPLEFPRP | -0.0524 |
| RRIRMRPPRLPRPRPRPVHDPRP | 0.0188 |
| RRIRYRPPRLPRPRPRPQNWPRP | -0.611 |
| RRIRKRPPRLPRPRPRPASPPRP | 0.122 |
| RRIRHRPPRLPRPRPRPIAWPRP | 0.0843 |
| RRIRKRPPRLPRPRPRPYNNPRP | -0.286 |
| RRIRERPPRLPRPRPRPDKPPRP | -0.051 |
| RRIRKRPPRLPRPRPRPQCMPRP | 0.0247 |
| RRIRGRPPRLPRPRPRPVNYPRP | 0.203 |
| RRIRPRPPRLPRPRPRPYFGPRP | -0.522 |
| RRIRRRPPRLPRPRPRPPGKPRP | 0.978 |
| RRIRLRPPRLPRPRPRPFEFPRP | -0.119 |
| RRIRSRPPRLPRPRPRPGMNPRP | -0.249 |
| RRIRVRPPRLPRPRPRPAALPRP | 0.0637 |
| RRIRSRPPRLPRPRPRPEPGPRP | 0.197 |
| RRIRPRPPRLPRPRPRPWSHPRP | -0.157 |
| RRIRRRPPRLPRPRPRPKVWPRP | 0.382 |
| RRIRPRPPRLPRPRPRPKKKPRP | -0.192 |
| RRIRYRPPRLPRPRPRPKAFPRP | 0.0171 |
